The text below walks through data of the DeepSol protein solubility set.

The series can be described thus: soluble on expression in E. coli; label from the status in PepcDB or PDB records.
“MSLHGNSEMQKINQTSAMPEKTDVHWSGRFSVAPMLDWTDRHCRYFLRLLSRNTLLYTEMVTTGAIIHGKGDYLAYSEEEHPVALQLGGSDPAALAQCAKLAEARGYDEINLNVGCPSDRVQNGMFGACLMGNAQLVADCVKAMRDVVSIPVTVKTRIGIDDQDSYEFLCDFINTVSGKGECEMFIIHARKAWLSGLSPKENREIPPLDYPRVYQLKRDFPHLTMSINGGIKSLEEAKAHLQHMDGVMVGREAYQNPGILAAVDREIFGSSDTDADPVAVVRAMYPYIERELSQGTYLGHITRHMLGLFQGIPGARQWRRYLSENAHKAGADINVLEHALKLVADKREGHHHHHH”: the “soluble on expression in E. coli” value is “soluble”.
With “MDSQKDFNLGDSSKGEKEGMQPSTGNNQFEPFEFLKKMIQPGRVMKRSKNNLSSNEVWSVCRAVIDEFKKEQNLMEVSAPVTVIGDVHGNFHDLYRALLARTEQDITDEQKSNFSTRQFVRDKYVFLGNYIDKGPRSIECICLLFAFKICFPQKYILLRGPHECPSVNSSEFLGVMETFSPNHFKKIHKKFNEAFSWMPLAAVVGQKILCVHGGISPRLTSWEDIRKIKRPLKDATEDPLATDLLFADTLDFDLIHIPTRKPKYEFNVIRNMSVMYNEAAVTQFCEKFNLKLIIRSHMKVPFGYRFFSEKRLITIFNSTGFQNESNYGAVLKIDGNAKITIISLLPQQSKAEVQEKAHHSDMTSECNTMSSKGP”, the “soluble on expression in E. coli” value is listed as “not soluble”.
Next, “RPRNALLLLADDGGFESGAYNNSAIATPHLDALARRSLLFRNAFTSVSSCSPSRASLLTGLPQHQNGMYGLHQDVHHFNSFDKVRSLPLLLSQAGVRTGIIGKKHVGPETVYPFDFAYTEENGSVLQVGRNITRIKLLVRKFLQTQDDRPFFLYVAFHDPHRCGHSQPQYGTFCEKFGNGESGMGRIPDWTPQAYDPLDVLVPYFVPNTPAARADLAAQYTTVGRMDQGVGLVLQELRDAGVLNDTLVIFTSDNGIPFPSGRTNLYWPGTAEPLLVSSPEHPKRWGQVSEAYVSLLDLTPTILDWFSIPYPSYAIFGSKTIHLTGRSLLPALEAEPLWATVFGSQSHHEVTMSYPMRSVQHRHFRLVHNLNFKMPFPIDQDFYVSPTFQDLLNRTTAGQPTGWYKDLRHYYYRARWELYDRSRDPHETQNLATDPRFAQLLEMLRDQLAKWQWETHDPWVCAPDGVLEEKLSPQCQPLHNEL”: “soluble”; “MTKLEQIQQWTAQHHASMTYLSNPKTIEYLTGFGSDPIERVLALVVFPDQDPFIFAPALEVEVIKETGWQFPVIGYLDHENPWAMIADQVKQRHVNPEHVAIEKGQLQVARMEALAAQFSAPSFDLDITSFIEHMR”: “soluble”; “MSLNTTFTKEDGTEVVIPFNGSQNGHPENEEPEVEEAAEPSSSVETLCGATRGDIIVMKHTTKALTELIERLLHSDEFEVRRCSNGQIISQGRCNGTTPGNGIGGGGASSEELEKALKDRDAARAEADKLHANYATLFASFNTVREAANDIRGEYEDARDKLKLAAAEVDEWQAKFLAVKDNANSELERASVEYDDLLRSHDENTKGLRLRVKRQEIELSSKNDEIKVLTNRVSELSQICDQLLNDVDVSDGMSVISTDA”: “not soluble”.
The result for “MGSDKIHHHHHHMTEILLKELTKSDIDWMITTGNQQELAAGTILIQERGSTEFFHILLDGTFSVTLSQPENNPLTRAFAAIEGEEISGREIGRLSRGEIVGESPLIGTRPPATTITSVEKSLVISIPIRELAAKLQQDVGFAARFYRAIAIIISNRIENTIDQLGRRNLAQSQPLRDVLFILGELHDSDIDWMMASGTPQKIPANTILIHEQGTVDALYILLDGKMSLSISLDERNPLVRAFAAIEGNEISGREIAKLSKGEIIGETPFIDGSLPPTTVKAIEHSVVLSIPRQQLAAKLQQDIGFASRFYRVIASLLDQRLQPMVSQLGYGRRVYSRGESLHEGLEYDDELDINTLDRMAIAGKRFDWMLERLKVS” reads “not soluble”; that for “YDYSNPATLFTLSDIGVSAHRYHNRLDIFTQSLENGAAQQGIEVSLLNEKGQTLTQASSDAQGHVQLENDKNAALLLARKNGQTTLLDLKLPALDLAEFNIAGAPGYSKQFFMFGPRDLYRPGETVILNGLLRDADGKALPDQPIKLDVIKPDGQVLRSVVSQPENGLYHFTWPLDSNAATGMWHIRANTGDNQYRMWDFHVEDFMPERMALNLTGEKTPLTPKDEVKFSVVGYYLYGAPANGNTLQGQLFLRPLREAVSALPGFEFGDIAA”, “not soluble”; that for “MAHHHHHHMAGEPYLVYLLRCLAHQSGLTQLSPHFAVPTTEIDSDDGGAVAVVTAGHSANHPSRLFWERCVVVGVRVEPTTKNLLQTGWETQPCSHCVSQDGAAADAHDSPSRRSRLCVLPLLYGGTQCGECGHALSLVPTWTRALYLVLQRRDRSRAAAVAYGEEVHRHLWLGVTIDALLYTSATEQQQQLLVVHAAAGPAAAAPSATLPCAETTKGAFHIICQDERVNRLGLKWGDGTAFSAAANLHDVARRVAPQLQGQAHVKRLLLLVVLYIVYYGSHPAAAGSHRHPLHVLLVGPAKTGKSALLREVAQLIGLEAEVLDSTVVRTGGSGGAAGGSSFSAALPIRRSAVLMAGSGMTASTLVLDQLPSTAGGAAAMAPLLEAMERGHGCGAASGEGDAAAGGPDVHELPSTIIAAAGEESAAAVQLAPYFSLLAAVAPTNSLDDTAIISQDVVAASRARSSHSRATSRSMSRATQLSASSPHHSQRGPSISQSTSHRADPSSLSERLTHEDVCYLVRRAAEPVLLNSVVSHAACYDAFIDKLVDCAGLLEETQPSVCHALPPPSACRGQHRVGLPSAACDSLRAAPLAIDEHLRILCALSRARALLEHAEVLRDAGWTAQMRDEVWALYHGHLVAFADLMQRRSCSSGAMASRDPAEVLRTTSWSSSFFDACGGSTAAPAPAGYPSLSRFSGDAAALGRAWKGRMRAMSSREGLGLWHPQKTPSKKRCRLMFVEALRQRQCLSAQVESAVPPPEVEHVFGLLGGSSAFGDPLDVVISQMQEEGLLLRRPGGWRSL”, “not soluble”.
Next, “ERVKWRKQIEASGARLKSMIDQTPAPTLVLMGDNLVIEQVNTSMLKLLGHEENIVGIPLLTLMPELKGQYIWEQVEKVYREGIPFDQSEVRVSHKRTGMMEDYYYNIAYRPLKEDGRITGMIQVAIDVT”: “not soluble”; “MPIEIITDSGADLPQSYIREHRIAFLPLVVHWNGQDYKDGITIEPKQVYDAMRQGHTVKTAQPSPLAMKELFLPYAKENRPCLYIAFSSKLSGTYQTAMAVRSELLDEYPEFRLTIIDSKCASLGQGLAVMKAVELAKQNTPYNLLCETIESYCRHMEHIFTVDNLDYLARGGRISKTAAAFGGLLNIKPLLHVEDGALIPLEKWRGRKKVLKRMVELMGERGDDLQKQTIGISHADDEETALELKQMIEETHGCTRFFLSDIGSAIGAHAGPGTIALFFLNKYIEI”: “soluble”.
With “EAVIATDEMNVRSGPGLSYGITAEVKKGERYPILKEDGDWVQIQLGSGEKGWVVSWLITKEDQASTSSSGSSDTVTSTDPDLRMRSGPGTSYEVIGKFPQGSQASVIDKDSGWIKISYHSATGWVSSEYVTSGGSSSASDESDQTEDSGASTTGTVGVSSLNVRASASHDAAIITKLDRGTKLTVLNEKNGWAHIEVNGLKGWVASHYLLTSSVPADDSANAGSSSSAKKAYIMYGGTNLRSDASTSASIVERAAKGDSYTITGSKGSWYEIKLDNGQTAYVANWVVQTSKSAEEAGEPPVSDSPSGNGSLNNKTIIVDPGHGGKDSGTIGYSGKFEKNLTIKTAKLLASKLRSAGADVYVTRQDDTFVSLQSRVSTSHYRNADAFISIHYDSYADTSTRGSTAYYYSPAKDQELASDVHSEVVKRSSIPDRGVLFGDYYVLRENRQPAMLYELGYVSHPQEEAIVHSNSYQEKVTDGIESGLEKYF”, the “soluble on expression in E. coli” value is given as “not soluble”.
The result for “GHMAAPILKDVVAYVEVWSSNGTENYSKTFTTQLVDMGAKVSKTFNKQVTHVIFKDGYQSTWDKAQKRGVKLVSVLWVEKCRTAGAHIDESLFPAANMNEHLS” reads “soluble”.
Next, “MAHHHHHHMSLTKGSKAAQDVISFLHTVGRLKVTARQGWVENQICSPESVSDHMYRMSLMCMMCPDTSLNRDRMVKMALCHDTGESIIGDISPAMKVPKEVKKQQESQAVQSLCKLVSSSPNTTFSKELGDLFEEYEAQETAESHFVKDMDLLEMVVQAHSYESANPGKDLGSFFRSGANIHHPWARAIYETLLETRPYLAYKEEQAKEASSI”: “soluble”; “GMPQHDKSRLVRIDTGPMINPVAGKPSRPIAGDASFRTVTAFEGGQGKVESGVWESTSGSFQSNTTGYIEYCHIIEGEARLVDPDGTVHAVKAGDAFIMPEGYTGRWEVDRHVKKIYFVTHLA”: “soluble”; “MPPKLRNFDKSMEKYTDVVLVVKQERFYVSRAILSEHCTYFQSLFCGDSNYQEHIISDVEPQDFQKFLEVVHGEPAIFEATVQKILPLAQKFGSKTVLQKCERFLITISTVRLSTKWNLAKQYGLDELQAHCKLEFKTAQIVRKNPQPEPKSLAYSDKFIFDHSFEKVDGLAEGDMRRSQPITHLDFTWTIYITRKNQHLRVSLCCGKAHLTSDWTVRADFKMTLTAKGSPDLVSDTKGFFHLDSEKNFYWELGQEVEWDEIRDKCLADGKLEVETRVRIVKIRELPVEEFKPPRIVTVNAVKSYEGVLSDYIRVTPLTQQAKTSAPAETPDLQTPPRQQASAKPQASPAKSAGAPQLPQKVPLFPSGGAPSSPSAPEAPSEPPPPKIYPTLGANAPPAPPVQGKKFILKNVFGNVEAMKCHTAMACQKAVAYDFEWNLIISQKNNRLHVSLCCSKSNVTSEFRILADFELIIAGKNGGRPLKSKTNGCFNIEKTKNSSQELGQDVEWSTIVYDYMVDGRLTVEAHVNITRVTCLDAPKFKKLRNFDATGNSWDVMLIVAGQRFFVLKEILISNSARFKNIISKINFTAAPSTEIKLPDSSADHFQNFLEACYGDPSINDDTVHGILKIAQSYEAAGIVKRCEEYVIKYSKKTLEQKEKLAKHHNLKTLKAHCDYWKSRRKCC”: “not soluble”.
In the case of “MGRVYYGGVERTYLYRGRILNLALEGRYEIVEHKPAVAVIALREGRMLFVRQMRPAVGLAPLEIPAGLIEPGEDPLEAARRQLAEETGLSGDLTYLFSYFVSPGFTDEKTHVFLAENLKEVEAHPDEDEAIEVVWMRPEEALERHQRGEVEFSATGLVGVLYYHAFLRGR”, the “soluble on expression in E. coli” value was “soluble”.
On to “MAHHHHHHMPDDRRRASRTDDALVAHRPADSASPVERRTRVDPRTHTKSLYQRGRDGSEMYASYYNSNDDPAFQERFNRHSNGNAFVQSAQFTYVSHGGCGGRNHTVVKERQRPVVVEEPDDADRHEASTDSGNNANVHAKHKDKEKRRSSKQDPIVEEPDSEDDYNDADSRAYRRGGKKGEFGSHPDALEFWRDPWGMESIMAEMMQPPLGFGDAFPFTSRRAPAQRRLKSPSVSNESKWQLSPHTRGGVMSSPFTGDLFGTGGPESPFRMMEAMQYHMHQQRAAMFGGVDPFRHFM”, for which the “soluble on expression in E. coli” value is reported as “not soluble”.
With “MENVNRNHKNSVFSSLFSTPDVLRELYSAIEGIPIPPDIPIDINTLTDILYKGQINDVSFVINNRLVVLIEHQSTINANIPLRLLMYIARVYEKIINRKKLYQSKLEKIPLPEFIVLYNGEKEYSDFQELKLSDAFKDIDGLKLSGIEKIPLELIVQVYNINHGHNPEILKRSETLDSYSIFINKIREYQKEKDSLEKAARSAIIYCIKNNILKDYLEAHASEVLNMLLTEWNQDEAVEVAREEGREEGREEGHENGLKEGKMIIAKNLLEKGSTPEFVREITGLSPEEIEEIELND”, the “soluble on expression in E. coli” value is “soluble”.
